Target: elav1_human ELAVL1 (UniProt Q15717)

effect of a mutation on the interaction: disrupting interaction
Substance: Polyubiquitin-C (Homo sapiens) (from UniProt P0CG48) K48R

— IntAct's records for PubMed 19322201
